The record followed here is publication doi:10.1101/2020.04.23.057265 (bioRxiv, 2020).

This assay has as its target SARS-CoV nsp7L8 fusion protein (SARS-CoV, UniProt P0C6X7). The experiment in a line: SPR. (In general: Surface plasmon resonance follows binding to a sensor surface in real time, without labels.)

B1: SARS-CoV nsp12 polymerase subunit (enzyme)
chain: SADASTFLNRVCGVSAARLTPCGTGTSTDVVYRAFDIYNEKVAGFAKFLKTNCCRFQEKDEEGNLLDSYFVVKRHTMSNYQHEETIYNLVKDCPAVAVHDFFKFRVDGDMVPHISRQRLTKYTMADLVYALRHFDEGNCDTLKEILVTYNCCDDDYFNKKDWYDFVENPDILRVYANLGERVRQSLLKTVQFCDAMRDAGIVGVLTLDNQDLNGNWYDFGDFVQVAPGCGVPIVDSYYSLLMPILTLTRALAAESHMDADLAKPLIKWDLLKYDFTEERLCLFDRYFKYWDQTYHPNCINCLDDRCILHCANFNVLFSTVFPPTSFGPLVRKIFVDGVPFVVSTGYHFRELGVVHNQDVNLHSSRLSFKELLVYAADPAMHAASGNLLLDKRTTCFSVAALTNNVAFQTVKPGNFNKDFYDFAVSKGFFKEGSSVELKHFFFAQDGNAAISDYDYYRYNLPTMCDIRQLLFVVEVVDKYFDCYDGGCINANQVIVNNLDKSAGFPFNKWGKARLYYDSMSYEDQDALFAYTKRNVIPTITQMNLKYAISAKNRARTVAGVSICSTMTNRQFHQKLLKSIAATRGATVVIGTSKFYGGWHNMLKTVYSDVETPHLMGWDYPKCDRAMPNMLRIMASLVLARKHNTCCNLSHRFYRLANECAQVLSEMVMCGGSLYVKPGGTSSGDATTAYANSVFNICQAVTANVNALLSTDGNKIADKYVRNLQHRLYECLYRNRDVDHEFVDEFYAYLRKHFSMMILSDDAVVCYNSNYAAQGLVASIKNFKAVLYYQNNVFMSEAKCWTETDLTKGPHEFCSQHTMLVKQGDDYVYLPYPDPSRILGAGCFVDDIVKTDGTLMIERFVSLAIDAYPLTKHPNQEYADVFHLYLQYIRKLHDELTGHMLDMYSVMLTNDNTSRYWEPEFYEAMYTPHTVLQ
Consider B1, for which the binding result is “binds”.
